The target of assay [1] is GFP phosphorylation mutant 214KRDSM (Aequorea victoria). Conditions: scale: relative rate.
Assay [2] deals with GFP phosphorylation mutant 68RRFSA (Aequorea victoria). Particulars: scale: relative rate.
The target in assay [3] is GFP phosphorylation mutant 25RRFSV (Aequorea victoria). Particulars: scale: relative rate.
Assay [4] deals with GFP phosphorylation mutant 172RRGSV (Aequorea victoria). Conditions: scale: relative rate.
Assay [5] has as its target GFP phosphorylation mutant 155KRKSGI (Aequorea victoria). Particulars: scale: relative rate.
In assay [6] the target is GFP N-terminal phosphorylation mutant 1MRRRRSII (Aequorea victoria).
Assay [7] concerns the target GFP N-terminal phosphorylation mutant -3… (Aequorea victoria).
Assay [8] concerns the target GFP N-terminal phosphorylation mutant 1MSRRRRSI (Aequorea victoria).
In assay [9] the target is GFP N-terminal phosphorylation mutant -2… (Aequorea victoria).
In assay [10] the target is GFP N-terminal phosphorylation mutant -1… (Aequorea victoria).
Assay [11] deals with GFP N-terminal phosphorylation mutant 1MSRRDSCF (Aequorea victoria). Conditions: scale: relative rate.
Assay [12] addresses GFP N-terminal phosphorylation mutant 1MRKGSLLF (Aequorea victoria). Particulars: scale: relative rate.
Assay [13] has as its target GFP N-terminal phosphorylation mutant 1MRRDSCLF (Aequorea victoria). Particulars: scale: relative rate.
The target in assay [14] is wild-type Aequorea green fluorescent protein (Aequorea victoria). Particulars: scale: relative rate.
For assay [15], the target named is GFP N-terminal phosphorylation mutant 1MSKRRDSL (Aequorea victoria). Particulars: scale: relative rate.
For assay [16], the target named is GFP N-terminal phosphorylation mutant 1MRRESLLF (Aequorea victoria). Particulars: scale: relative rate.
In assay [17] the target is GFP N-terminal phosphorylation mutant 1MRKGSCLF (Aequorea victoria). Particulars: scale: relative rate.

Take “protein kinase A catalytic subunit (enzyme)”: the Relative rates of phosphorylation (32P incorporation) turned out to be 1.88 in assay [1]; 0.6 in assay [2]; 1.75 in assay [3]; 1.57 in assay [4]; 2.5 in [5]; 2.1 in assay [11]. The Relative rates of phosphorylation (32P incorporation) in [12] came to 1.6; in assay [13], 3.7; in assay [14], 1; in [15], 5.5; in assay [16], 3; in assay [17] it was 5.1. Also, the % Change in fluorescence upon phosphorylation turned out to be 70% in [6]; 70% in assay [7]; 40% in [8]; 15% in assay [9]; 43% in [10].

The values above are taken from patent publication US5925558.
